Data reported in publication PMC8248988, “A signal capture and proofreading mechanism for the KDEL-receptor explains selectivity and dynamic range in ER retrieval” (eLife, 2021).

Tested on: BIP and PDI, ERP72 and ERP44
Experiment: ER chaperone secretion assay, all four chaperones
Assay type: cell-based, human
Conditions: HeLa S3 cells
From the text: Figure 1. ER retrieval signal abundance and affinity are not correlated. (a) Sequence logos for ER resident proteins with C-terminal KDEL retrieval signals and variants thereof calculated using frequency or protein abundance ([Itzhak et al., 2017]; [Itzhak et al., 2016]). (b) Combined cellular concentrations of ER resident proteins with canonical KDEL, RDEL, and HDEL retrieval sequences in HeLa cells and mouse brain. (c) Competition binding assays for [^3H]-TAEHDEL and unlabelled TAEKDEL, TAERDEL, and TAEHDEL to the KDEL receptor. IC50 values for the competing peptides were used to calculate the apparent KDwith the Cheng-Prusoff equation ([Cheng and Prusoff, 1973]). (d) Endogenous KDEL receptor redistribution was measured in COS-7 cells in the absence (-ligand) or presence of K/R/H/A/DDEL (mScarlet-xDEL^sec). TGN46 was used as a Golgi marker. Scale bar is 10 µm. […] The individual data points for the fraction of KDEL receptor fluorescence in the Golgi are plotted on the upper axes with sample sizes and p values. […] Endogenous ER chaperone secretion was measured by western blotting after challenge with different retrieval signals, and plotted as a bar graph showing mean ± SEM (n = 3). […] (a) Distribution of human KDELR1 and (b) KDELR2 was measured in COS-7 cells in the absence (-ligand) or presence of K/R/H/A/DDEL retrieval signals (K/R/H/A/DDEL^sec). […]

In the case of “ADEL [pcDNA3.1 hGHss-mScarlet-H. sapiens BiP639-654K651A (ADEL^SEC), secreted mScarlet fusion with human BiP C-terminus, ADEL signal]”, the “effect on ER retention of BIP, PDI, ERP72 and ERP44 (in words)” value is reported as “little effect on ER retention”.
